Where a chain is given by its changes, count along the chain named. Names and notes keep the numbering of the source. One block for each molecule: values may come before it.
Key:
[1] = target: membrane-bound full-length human HVEM on stable HVEM-transfected HEK293F cells (clone no. 128) (human) (UniProt Q92956); assay: flow cytometry, 1:20, HEK293F clone no. 128
[2] = target: membrane-bound human HVEM on Promega bioassay cells (NFκB-RE-luc human HVEM HEK293 reporter cells; CHO-K1 Activator cells) (human) (UniProt Q92956); assay: flow cytometry, 1:20, NFκB-RE-luc HVEM reporter cells
[3] = target: membrane-bound human HVEM on Promega bioassay cells (NFκB-RE-luc human HVEM HEK293 reporter cells; CHO-K1 Activator cells) (human) (UniProt Q92956); assay: cell-based or functional assay
[4] = target: T1, membrane-bound full-length human HVEM on stable HVEM-transfected HEK293F cells (clone no. 128) (human, UniProt Q92956 39-283); assay: FACS, his-LIGHT pre-bound, then Ab 20 µg/mL
T1 construct: The same cDNA was also expressed on Sf9 insect cells; also called TNFRSF14; CD270
T1 sequence: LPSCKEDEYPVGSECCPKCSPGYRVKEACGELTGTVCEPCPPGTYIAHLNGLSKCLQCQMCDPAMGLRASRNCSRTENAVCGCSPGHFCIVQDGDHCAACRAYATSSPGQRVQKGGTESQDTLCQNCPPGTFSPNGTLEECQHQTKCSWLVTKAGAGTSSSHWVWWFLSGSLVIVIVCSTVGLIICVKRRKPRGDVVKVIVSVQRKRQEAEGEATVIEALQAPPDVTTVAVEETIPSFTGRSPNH
Experimental: Generation of human ‘full-length’ HVEM-transfected HEK293F cells (clone no. 128) is described in Example 1a. Displacement of pre-bound soluble human BTLA, soluble human CD160, soluble human LIGHT, and soluble human TNFβ from surface human HVEM-transfected cells was analysed by FACS analysis. To this end, stable human full-length HVEM-transfected HEK293F cells were put at 10×10⁶ cells/mL in ice-chilled phosphate-buffered saline containing 0.1% BSA (Sigma)/0.05% NaN₃ (PBS/BSA/NaN₃) supplemented with 50 μg/mL human IgGs (blocking possible Fcγ receptors; Sigma) for 10 minutes at 4° C. Then, 10 μL/tube (i.e., 0.1×10⁶ cells) of these cells were incubated without or with 50 μL soluble biotinylated human BTLA-human Fcγ fusion protein (Sino Biological Inc) at 2 μg/mL/tube, with soluble his-tagged human CD160 (Sino Biological Inc) at 20 μg/mL/tube, with soluble his-tagged human LIGHT (Sino Biological Inc) at 2 μg/mL/tube, or with soluble biotinylated human TNFβ (Sino Biological Inc) at 0.2 μg/mL/tube in PBS/BSA/NaN₃ for 30 minutes at 4° C. After this (i.e., without washing), cells were subsequently incubated with 50 μL purified chimeric mouse/human anti-HVEM antibody at 20 μg/mL/tube or a human IgG4/κ (Sigma) negative isotype control at 20 μg/mL/tube for 30 minutes at 4° C. After extensive washing in PBS/BSA/NaN₃, cells were incubated with 1:200 diluted PE-conjugated streptavidin (detection BTLA and TNFβ; Jackson ImmunoResearch) or with biotinylated mouse anti-his antibody (detection CD160 and LIGHT; R&D Systems) at 10 μg/mL for 30 minutes at 4° C. […] Residual binding of ligands BTLA, CD160, LIGHT and TNFβ on membrane human HVEM was measured using a flow cytometer (model FACSCalibur; BD Biosciences).

[5] = target: T1, membrane-bound full-length human HVEM …; assay: FACS titration on HVEM-HEK293F, half-maximum binding
Experimental: In order to determine the relative binding affinity of purified BTLA/HVEM blocking chimeric mouse/human anti-human HVEM antibodies no. 36H12, 45H6, 48H6, 11H7, and 49G4 for human HVEM, FACS analysis was used.
To this end, stable human full-length HVEM-transfected HEK293F cells (clone no. 128; see Example 1(a) above) were put at 10×10⁶ cells/mL in ice-chilled PBS containing 0.1% BSA (Sigma)/0.05% NaN₃ (PBS/BSA/NaN₃) supplemented with 50 μg/mL human IgGs (blocking possible Fcγ receptors; Sigma) for 10 minutes at 4° C. Then, 10 μL/tube (i.e., 0.1×10⁶ cells) of these cells were incubated with or without 100 μL titrated (in PBS/BSA/NaN₃) purified BTLA/HVEM blocking chimeric mouse/human anti-human HVEM antibody/tube for 30 minutes at 4° C. After extensive washing in PBS/BSA/NaN₃, cells were subsequently incubated with 1:200 diluted PE-conjugated goat anti-human IgG Fcγ-specific antibodies (Jackson ImmunoResearch) for 30 minutes at 4° C. After extensive washing in PBS/BSA/NaN₃, cells were fixed in 4% formaldehyde in PBS/BSA/NaN₃ for 30 minutes at 4° C. Binding (geo-mean fluorescence intensity) of chimeric mouse/human anti-human HVEM antibodies no. 36H12, 45H6, 48H6, 11H7, and 49G4 on membrane human HVEM was measured using a flow cytometer (FACSCalibur; BD Biosciences). For comparison, purified BTLA/HVEM blocking mouse anti-human HVEM antibody counterparts no. 36H12, 45H6, 48H6, 11H7, and 49G4 were run in parallel, and their binding was monitored as described in Example 2 (a).

[6] = target: T1, membrane-bound full-length human HVEM …; assay: FACS, biotinylated TNFβ pre-bound, then Ab 20 µg/mL
Experimental: (§1) Generation of human ‘full-length’ HVEM-transfected HEK293F cells (clone no. 128) is described in Example 1a. Displacement of pre-bound soluble human BTLA, soluble human CD160, soluble human LIGHT, and soluble human TNFβ from surface human HVEM-transfected cells was analysed by FACS analysis. To this end, stable human full-length HVEM-transfected HEK293F cells were put at 10×10⁶ cells/mL in ice-chilled phosphate-buffered saline containing 0.1% BSA (Sigma)/0.05% NaN₃ (PBS/BSA/NaN₃) supplemented with 50 μg/mL human IgGs (blocking possible Fcγ receptors; Sigma) for 10 minutes at 4° C. Then, 10 μL/tube (i.e., 0.1×10⁶ cells) of these cells were incubated without or with 50 μL soluble biotinylated human BTLA-human Fcγ fusion protein (Sino Biological Inc) at 2 μg/mL/tube, with soluble his-tagged human CD160 (Sino Biological Inc) at 20 μg/mL/tube, with soluble his-tagged human LIGHT (Sino Biological Inc) at 2 μg/mL/tube, or with soluble biotinylated human TNFβ (Sino Biological Inc) at 0.2 μg/mL/tube in PBS/BSA/NaN₃ for 30 minutes at 4° C. After this (i.e., without washing), cells were subsequently incubated with 50 μL purified chimeric mouse/human anti-HVEM antibody at 20 μg/mL/tube or a human IgG4/κ (Sigma) negative isotype control at 20 μg/mL/tube for 30 minutes at 4° C. […] After extensive washing in PBS/BSA/NaN₃, cells were incubated with 1:200 diluted PE-conjugated streptavidin (detection CD160 and LIGHT; Jackson ImmunoResearch) for 30 minutes at 4° C. After extensive washing in PBS/BSA/NaN₃, cells were fixed in 4% formaldehyde in PBS/BSA/NaN₃ for 30 minutes at 4° C. Residual binding of ligands BTLA, CD160, LIGHT and TNFβ on membrane human HVEM was measured using a flow cytometer (model FACSCalibur; BD Biosciences).

[7] = target: T1, membrane-bound full-length human HVEM …; assay: FACS, biotinylated BTLA-Fc pre-bound, then Ab 20 µg/mL
Experimental: as §1

[8] = target: T1, membrane-bound full-length human HVEM …; assay: FACS, Ab 10 µg/mL then biotinylated BTLA on HVEM-HEK293F
Experimental: (§2) Generation of human ‘full-length’ HVEM-transfected HEK293F cells (clone no. 128) is described in Example 1a. Binding of soluble human BTLA, of soluble human CD160, of soluble human LIGHT, and of soluble human TNFβ on surface human HVEM-transfected cells was analysed by FACS analysis. To this end, stable human full-length HVEM-transfected HEK293F cells were put at 10×10⁶ cells/mL in ice-chilled phosphate-buffered saline containing 0.1% BSA (Sigma)/0.05% NaN₃ (PBS/BSA/NaN₃) supplemented with 50 μg/mL human IgGs (blocking possible Fcγ receptors; Sigma) for 10 minutes at 4° C. Then, 10 μL/tube (i.e., 0.1×10⁶ cells) of these cells were incubated with or without 100 μL purified chimeric mouse/human anti-HVEM antibody at 10 μg/mL/tube or a human IgG4/κ (Sigma) negative isotype control at 10 μg/mL/tube for 30 minutes at 4° C. After this (i.e., without washing), cells were subsequently incubated with 1 μg/mL soluble biotinylated human BTLA (Sino Biological Inc), with 10 μg/mL soluble his-tagged human CD160 (Sino Biological Inc), with 1 μg/mL soluble his-tagged human LIGHT (Sino Biological Inc), or with 0.1 μg/mL soluble biotinylated human TNFβ (Sino Biological Inc) in PBS/BSA/NaN₃ for 30 minutes at 4° C. After extensive washing in PBS/BSA/NaN₃, cells were incubated with 1:200 diluted PE-conjugated streptavidin (detection BTLA and TNFβ; Jackson ImmunoResearch) or with biotinylated mouse anti-his antibody (detection CD160 and LIGHT; R&D Systems) at 10 μg/mL for 30 minutes at 4° C. After extensive washing in PBS/BSA/NaN₃, cells were incubated with 1:200 diluted PE-conjugated streptavidin (detection CD160 and LIGHT; Jackson ImmunoResearch) for 30 minutes at 4° C. After extensive washing in PBS/BSA/NaN₃, cells were fixed in 4% formaldehyde in PBS/BSA/NaN₃ for 30 minutes at 4° C. Binding of ligands BTLA, CD160, LIGHT and TNFβ on membrane human HVEM was measured using a flow cytometer (model FACSCalibur; BD Biosciences). For comparison, purified BTLA/HVEM blocking mouse anti-human HVEM antibody counterparts no. 36H12, 45H6, 48H6, 11H7, and 49G4 at 10 μg/mL/tube and a mouse IgG1 (BD Biosciences) negative isotype control at 10 μg/mL/tube were run in parallel.

[9] = target: T1, membrane-bound full-length human HVEM …; assay: FACS, Ab 10 µg/mL then biotinylated TNFβ on HVEM-HEK293F
Experimental: as §2

signal to noise ratio [1]: 1000
signal to noise ratio [2]: < 5
Molecule: phycoerythrin (PE)-conjugated mouse anti-human HVEM antibody (clone eBioHVEM-122; eBioscience)

EC80 of LIGHT-induced NFκB-RE-luc activation [3]: 0.3 µg/mL
Molecule: soluble his-tagged human LIGHT (R&D Systems) (ligand)

% displacement of pre-bound ligand [4]: < 20%
EC50 [5]: 0.312 µg/mL
% displacement of pre-bound ligand [6]: > 55%
% displacement of pre-bound ligand [7]: > 95%
% blocking of ligand binding [8]: > 95%
% blocking of ligand binding [9]: > 80%
B1: chimeric mouse/human IgG4/kappa anti-human HVEM antibody no. 49G4 (antibody, V domains shown)
VH: EVQLQQSGAELVKPGASVKLSCRASGFNIKDTYMHWVKQRPEQGLEWIGRIDPARGNTKYDPKFQGKATITADTSSNTAYLQLSSLTSEDTAVYYCASAMDYWGQGTSVTVSS
VL: DVLMTQTPLSLPVSLGDQASISCRSSQSIVHSNGNTYLEWFLQKPGQSPKLLIYKVSNRFSGVPDRFSGSGSGTDFTLKISRVEAEDLGVYYCFQGSHVPLTFGAGTKLELKR
notes: 48/49 within the entry; Stabilized human IgG4 (S239P) already in the entry; also called chimeric 49G4

% displacement of pre-bound ligand [4]: < 20%
EC50 [5]: 0.433 µg/mL
% displacement of pre-bound ligand [6]: > 90%
% displacement of pre-bound ligand [7]: > 95%
% blocking of ligand binding [8]: > 95%
% blocking of ligand binding [9]: > 94%
B2: chimeric mouse/human IgG4/kappa anti-human HVEM antibody no. 36H12 (antibody, V domains shown)
VH: EVQLQQSGAGLVKPGASVKLSCTASGFNIKDTYMHWVRQRPEQGLEWIGRIDPATANTKYDPKFQGKATLTTDTSSNTAYLQLSSLTSEDTAVYYCVTYGYDVSWFAYWGLGALVTVSA
VL: B1 VL with N35I, F41Y
notes: 16/17 within the entry; Stabilized human IgG4 (S239P) already in the entry; also called chimeric 36H12

% displacement of pre-bound ligand [4]: < 20%
EC50 [5]: 0.306 µg/mL
% displacement of pre-bound ligand [6]: > 90%
% displacement of pre-bound ligand [7]: > 95%
% blocking of ligand binding [8]: > 95%
% blocking of ligand binding [9]: > 94%
B3: chimeric mouse/human IgG4/kappa anti-human HVEM antibody no. 45H6 (antibody, V domains shown)
VH: DVQLVESGGGLVQPGGSRKLSCAASGFTFSSFGMHWVRQAPEKGLEWVAYISSGNSNIYYVDTVKGRFTISRDNPKNTLFLQMTSLRSEDTAMYYCARKRAYGDYSGFSMDYWGQGTSVTVSS
VL: DIVMTQSQKFMSTSVGDRVSVTCKASQNVDTNVAWYQQKPGQSPKALIYSASYRYSGVPDRFTGSGSGTDFTLTISNVQSEDLAEYFCQQYNKFPLTFGGGTKLEIKR
notes: 24/25 within the entry; Stabilized human IgG4 (S239P) already in the entry; also called chimeric 45H6

From patent US20230052646A1 (JJP BIOLOGICS SP Z O O, published 2023)
